The data set relates to Escherichia coli TOP10. The data set can be described thus: shrunken log2 fold change of peptide-encoding DNA abundance (4.5 h post-induction vs induction); higher = less antimicrobial activity (less host growth inhibition). As to conditions: time post-induction: 4.5 h; library: site-saturation at positions 5, 18, 19, 20.
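Further: peptides expressed intracellularly from a pBAD plasmid library in pooled LB shake-flask culture, induced with 0.3% L-arabinose, DNA abundance read by NGS, three biological replicates, DESeq2 with apeglm shrinkage.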

Consider RRIRNRPPRLPRPRPRPPQYPRP, for which the “shrunken log2 fold change” value was -0.0544.
RRIRIRPPRLPRPRPRPSLCPRP: the “shrunken log2 fold change” value is -0.242.
As for RRIRRRPPRLPRPRPRPMMTPRP, the “shrunken log2 fold change” value was 0.975.
Consider RRIRQRPPRLPRPRPRPRCEPRP, for which the “shrunken log2 fold change” value is -0.128.
Next, RRIRRRPPRLPRPRPRPDWWPRP: -0.0208; RRIRIRPPRLPRPRPRPNQFPRP: -0.0326; RRIRARPPRLPRPRPRPYFDPRP: -0.123.
As to RRIRVRPPRLPRPRPRPLTPPRP, the “shrunken log2 fold change” value was 0.758.
RRIRYRPPRLPRPRPRPKRCPRP: the “shrunken log2 fold change” value was determined as 0.0441.
Turning to RRIRYRPPRLPRPRPRPNWCPRP, the “shrunken log2 fold change” value worked out at 0.01.
Next, RRIRDRPPRLPRPRPRPFQTPRP: 0.0255; RRIRCRPPRLPRPRPRPACQPRP: 0.305; RRIRWRPPRLPRPRPRPMVVPRP: 0.026.
The same measure for RRIRRRPPRLPRPRPRPIQHPRP: 0.0238.
The same measure for RRIRARPPRLPRPRPRPSQLPRP: 0.262; for RRIRARPPRLPRPRPRPSEGPRP: -0.00533.
As to RRIRERPPRLPRPRPRPDSDPRP, the “shrunken log2 fold change” value is -0.0703.
Next, RRIRSRPPRLPRPRPRPNSAPRP: -0.35; RRIRCRPPRLPRPRPRPHDIPRP: -0.00735.
The same measure for RRIRRRPPRLPRPRPRPTLRPRP: 0.712; for RRIRSRPPRLPRPRPRPLEQPRP: 0.0284.
Next, RRIRMRPPRLPRPRPRPKAYPRP: 0.0225; RRIRDRPPRLPRPRPRPLLFPRP: 0.445.
Take RRIRDRPPRLPRPRPRPMCIPRP: the “shrunken log2 fold change” value is -0.121.
The same measure for RRIRGRPPRLPRPRPRPCPSPRP: 0.0189.
The same measure for RRIRGRPPRLPRPRPRPGPTPRP: 1.51.
As for RRIRFRPPRLPRPRPRPMPQPRP, the “shrunken log2 fold change” value was -0.0791.
The same measure for RRIRIRPPRLPRPRPRPHRIPRP: 0.0122.
The same measure for RRIRIRPPRLPRPRPRPWEEPRP: -0.04.
The same measure for RRIRFRPPRLPRPRPRPSHRPRP: -0.214; for RRIRIRPPRLPRPRPRPHEVPRP: -0.0624; for RRIRPRPPRLPRPRPRPGKYPRP: -0.132.
Regarding RRIRGRPPRLPRPRPRPLDEPRP, the “shrunken log2 fold change” value is 1.24.
Next, RRIRVRPPRLPRPRPRPCCYPRP: -0.272; RRIRMRPPRLPRPRPRPCMPPRP: -0.106.
Consider RRIRRRPPRLPRPRPRPSLGPRP, for which the “shrunken log2 fold change” value came out at 0.261.
The same measure for RRIRERPPRLPRPRPRPRPDPRP: 0.205; for RRIRSRPPRLPRPRPRPTEHPRP: -0.0545; for RRIRNRPPRLPRPRPRPKIKPRP: -0.256.
The same measure for RRIRTRPPRLPRPRPRPIEFPRP: 0.0274; for RRIRARPPRLPRPRPRPIPAPRP: 0.333; for RRIRDRPPRLPRPRPRPVGWPRP: 0.945.
The same measure for RRIRCRPPRLPRPRPRPRGDPRP: 0.867; for RRIRFRPPRLPRPRPRPIVLPRP: -0.196.
For the sequence RRIRWRPPRLPRPRPRPRMRPRP, the “shrunken log2 fold change” value was determined as 1.03.
RRIRVRPPRLPRPRPRPHFFPRP: the “shrunken log2 fold change” value was -0.0497.
Next, RRIRERPPRLPRPRPRPVMDPRP: -0.0467; RRIRYRPPRLPRPRPRPTHKPRP: -0.329.
For the sequence RRIRLRPPRLPRPRPRPFTHPRP, the “shrunken log2 fold change” value is -0.342.
In the case of RRIRPRPPRLPRPRPRPILIPRP, the “shrunken log2 fold change” value is -0.106.
Next, RRIRKRPPRLPRPRPRPRFDPRP: 0.19; RRIRVRPPRLPRPRPRPWHAPRP: -0.109.
Consider RRIRMRPPRLPRPRPRPHNRPRP, for which the “shrunken log2 fold change” value is -0.172.
RRIRIRPPRLPRPRPRPRKDPRP: the “shrunken log2 fold change” value was -0.387.
Next, RRIRERPPRLPRPRPRPAMLPRP: -0.155.
Next, RRIRHRPPRLPRPRPRPQRMPRP: -0.16.
The same measure for RRIRIRPPRLPRPRPRPTQQPRP: 0.0936; for RRIRKRPPRLPRPRPRPKIIPRP: -0.135.
As for RRIRTRPPRLPRPRPRPAPRPRP, the “shrunken log2 fold change” value came to 1.39.
Next, RRIRFRPPRLPRPRPRPPMEPRP: -0.0751; RRIRPRPPRLPRPRPRPKQKPRP: 0.123; RRIRIRPPRLPRPRPRPTIWPRP: -0.157.
The same measure for RRIRWRPPRLPRPRPRPQHYPRP: -0.574; for RRIRYRPPRLPRPRPRPPRGPRP: 0.284.
Consider RRIRYRPPRLPRPRPRPHQTPRP, for which the “shrunken log2 fold change” value was 0.0583.
On to RRIRERPPRLPRPRPRPWCDPRP, for which the “shrunken log2 fold change” value was -0.508.
The same measure for RRIRMRPPRLPRPRPRPCNCPRP: -0.0499.
The same measure for RRIRERPPRLPRPRPRPIIRPRP: -0.447.
For the sequence RRIRGRPPRLPRPRPRPTYYPRP, the “shrunken log2 fold change” value is 0.0798.
The same measure for RRIRMRPPRLPRPRPRPGWGPRP: 1.2.
With RRIRMRPPRLPRPRPRPFWAPRP, the “shrunken log2 fold change” value was 0.509.
Next, RRIRQRPPRLPRPRPRPCFWPRP: 0.14; RRIRLRPPRLPRPRPRPIQRPRP: -0.00804.
Next, RRIRQRPPRLPRPRPRPRNQPRP: -0.329; RRIRFRPPRLPRPRPRPNVVPRP: -0.046.
The same measure for RRIRFRPPRLPRPRPRPNLQPRP: -0.264.
For the sequence RRIRFRPPRLPRPRPRPCKLPRP, the “shrunken log2 fold change” value is -1.48.
RRIRLRPPRLPRPRPRPVVLPRP: the “shrunken log2 fold change” value is -0.0303.
In the case of RRIRFRPPRLPRPRPRPVLLPRP, the “shrunken log2 fold change” value was -0.209.
The same measure for RRIRMRPPRLPRPRPRPMDVPRP: -0.0209.
The same measure for RRIRPRPPRLPRPRPRPVQHPRP: 0.278.
Next, RRIRERPPRLPRPRPRPDVNPRP: -0.0793.
Consider RRIRCRPPRLPRPRPRPQDHPRP, for which the “shrunken log2 fold change” value is -0.226.
Next, RRIRQRPPRLPRPRPRPWMMPRP: 0.0873; RRIRIRPPRLPRPRPRPPILPRP: -0.0859.
The same measure for RRIRQRPPRLPRPRPRPMTCPRP: 0.0215; for RRIRQRPPRLPRPRPRPTEYPRP: -0.401; for RRIRPRPPRLPRPRPRPPNEPRP: -0.0989.
The same measure for RRIRDRPPRLPRPRPRPPLKPRP: 0.0742; for RRIRIRPPRLPRPRPRPTRSPRP: -0.00877.
In the case of RRIRFRPPRLPRPRPRPQPDPRP, the “shrunken log2 fold change” value stood at 0.254.

The record behind these values is the supplement of paper PMC9112550, “Optimization of the antimicrobial peptide Bac7 by deep mutational scanning” (BMC Biology, 2022).
